Experimental data taken from article doi:10.1101/2021.09.13.460076.

Target: ADDomer-SpyTag (ADD-ST) particle (human adenovirus type 3)
Assay: covalent adduct on SDS-PAGE

Q: SpyCatcher (SC) (designed binder) was tested. Which stoichiometry N (copies per particle) did it give?
A: Its stoichiometry N (copies per particle) is 60.
